From patent US20260266848A1, “COMPOSITIONS AND METHODS FOR DIAGNOSING AND TREATING DYSTONIA” (Duke University, priority 2023, published 2026)

B1: Pbdc1 (protein, UniProt Q9D0B6 1-198, looked up)
Protein PBDC1: MDAAGESEEPVSGEALSIAHALSHPPESYGNDPDIEMAWAIRAMQHAEVYYKLISSVDPQFLKLTKVDDQIYSEFREIFETLRVDVLDPEELKSESAKEKWRPFCLKFEGIVEDYNYGTLLRLDCSQGYTEENTIFAPRIQFFAIEIARNREGYNKAVSVSIQDKEGEEGAGNKEEAAEKGADSGGEKEEGANREGEK
B2: Upf1 (protein, UniProt Q9EPU0 1-1124, looked up)
Regulator of nonsense …: MSVEAYGPSSQTLTFLDTEEAELLGADTQGSEFEFTDFTLPSQTQTPPGGPGGAGGPGGAGAGGAAGQLDAQVGPEGILQNGAVDDSVAKTSQLLAELNFEEDEEDTYYTKDLPVHACSYCGIHDPACVVYCNTSKKWFCNGRGNTSGSHIVNHLVRAKCKEVTLHKDGPLGETVLECYNCGCRNVFLLGFIPAKADSVVVLLCRQPCASQSSLKDINWDSSQWQPLIQDRCFLSWLVKIPSEQEQLRARQITAQQINKLEELWKENPSATLEDLEKPGVDEEPQHVLLRYEDAYQYQNIFGPLVKLEADYDKKLKESQTQDNITVRWDLGLNKKRIAFFTLPKTDSGNEDLVIIWLRDMRLMQGDEICLRYKGDLAPLWKGIGHVIKVPDNYGDEIAIELRSSVGAPVEVTHNFQVDFVWKSTSFDRMQSALKTFAVDETSVSGYIYHKLLGHEVEDVVIKCQLPKRFTAQGLPDLNHSQVYAVKTVLQRPLSLIQGPPGTGKTVTSATIVYHLARQGNGPVLVCAPSNIAVDQLTEKIHQTGLKVVRLCAKSREAIDSPVSFLALHNQIRNMDSMPELQKLQQLKDETGELSSADEKRYRALKRTAERELLMNADVICCTCVGAGDPRLAKMQFRSILIDESTQATEPECMVPVVLGAKQLILVGDHCQLGPVVMCKKAAKAGLSQSLFERLVVLGIRPIRLQVQYRMHPALSAFPSNIFYEGSLQNGVTAADRVKKGFDFQWPQPDKPMFFYVTQGQEEIASSGTSYLNRTEAANVEKITTKLLKAGAKPDQIGIITPYEGQRSYLVQYMQFSGSLHTKLYQEVEIASVDAFQGREKDFIILSCVRANEHQGIGFLNDPRRLNVALTRARYGVIIVGNPKALSKQPLWNHLLSYYKEQKALVEGPLNNLRESLMQFSKPRKLVNTVNPGARFMTTAMYDAREAIIPGSVYDRSSQGRPSNMYFQTHDQISMISAGPSHVAAMNIPIPFNLVMPPMPPPGYFGQANGPAAGRGTPKTKTGRGGRQKNRFGLPGPSQTTLPNSQASQDVASQPFSQGALTQGYVSMSQPSQMSQPGLSQPELSQDSYLGDEFKSQIDVALSQDSTYQGERAYQHGGVTGLSQY
B3: Dpp3 (protein, UniProt Q99KK7 2-738, looked up)
Dipeptidyl peptidase 3: ADTQYILPNDIGVSSLDCREAFRLLSPTERLYAHHLSRAAWYGGLAVLLQTSPEAPYIYALLSRLFRAQDPDQLRQHALAEGLTEEEYQAFLVYAAGVYSNMGNYKSFGDTKFVPNLPKDKLGRVILGSKAAQQRPEEVRDLWQTCGDLMFSLEPRLRHLGLGKEGVTTYFSGDCTMEDAKLAQDFLDSQNLSAYNTRLFKVVGQEGKSHYEVRLASVLNTDPALDSELTSKLKRYEFQGNHFQVTRGDYAPILQKVVEHLEKAKAYAANSHQEQMLAQYVESFTQGSIEAHKRGSRFWIQDKGPIVESYIGFIESYRDPFGSRGEFEGFVAMVNKAMSAKFERLVASAEQLLKELPWPLAFEKDKFLTPDFTSLDVLTFAGSGIPAGINIPNYDDLRQTEGFKNVSLGNVLAVAYAAKREKLTFLEEEDKDLYIRWKGPSFDVQVGLHELLGHGSGKLFVQDEKGAFNFDKETVINPETGEQIQSWYRSGETWDSKFSTIASSYEECRAESVGLYLCLNPQVLEIFGFEGADAEDVIYVNWLNMVRAGLLALEFYTPEAANWRQAHMQARFVILRVLLEAGEGLVTVTPTTGSDGRPDARVRLDRSKIRSVGRPALERFLRRLQVLKSTGDVVAGRALYEGYAAVTDAPPECFLTLRDTVLLRKESRKLIVQPNTRLEGSEVQLVEYEASAAGLIRSFCERFPEDGPELEEVLIQLAAADARFWRNQAQEAPPGQA
B4: Eif4g2 (protein, UniProt Q62448 1-906, looked up)
Eukaryotic translation …: MESAIAEGGASRFSASSGGGGSRGAPQHYPKTAGNSEFLGKTPGQNAQKWIPARSTRRDDNSAANNSANEKERHDAIFRKVRGILNKLTPEKFDKLCLELLNVGVESKLILKGVILLIVDKALEEPKYSSLYAQLCLRLAEDAPNFDGPAAEGQPGQKQSTTFRRLLISKLQDEFENRTRNVDVYDKRENPLLPEEEEQRAIAKIKMLGNIKFIGELGKLDLIHESILHKCIKTLLEKKKRVQLKDMGEDLECLCQIMRTVGPRLDHERAKSLMDQYFARMCSLMLSKELPARIRFLLQDTVELREHHWVPRKAFLDNGPKTINQIRQDAVKDLGVFIPAPMAQGRSDFFLEGPFMPPRMKMDRDPLGGLADMFGQMPGSGIGTGPGVIQDRFSPTMGRHRSNQLFNGHGGHIMPPTQSQFGEMGGKFMKSQGLSQLYHNQSQGLLSQLQGQSKDMPPRFSKKGQLNADEISLRPAQSFLMNKNQVPKLQPQITMIPPSAQPPRTQTPPLGQTPQLGLKTNPPLIQEKPAKTSKKPPPSKEELLKLTEAVVTDYLNSGNANDAVSGVREMRAPKHFLPEMLSKVIILSLDRSDEDKEKASSLISLLKQEGIATSDNFMQAFLNVLEQCPKLEVDIPLVKSYLAQFAARAIISELVSISELAQPLESGTHFPLFLLCLQQLAKLQDREWLTELFQQSKVNMQKMLPEIDQNKDRMLEILEGKGLSFLFPLLKLEKELLKQIKLDPSPQTIYKWIKDNISPKLHVDKGFVNILMTSFLQYISSEVSPPSDETDSSSAPSKEQLEQEKQLLLSFKPVMQKFLHDHVDLQVSALYALQVHCYNSSFPKGMLLRFFVHFYDMEIIEEEAFLAWKEDITQEFPGKGKALFQVNQWLTWLETAEEEESEEEAD
B5: Ap1b1 (protein, UniProt O35643 1-943, looked up)
AP-1 complex subunit beta-1: MTDSKYFTTTKKGEIFELKAELNSDKKEKKKEAVKKVIASMTVGKDVSALFPDVVNCMQTDNLELKKLVYLYLMNYAKSQPDMAIMAVNTFVKDCEDPNPLIRALAVRTMGCIRVDKITEYLCEPLRKCLKDEDPYVRKTAAVCVAKLHDINAQLVEDQGFLDTLKDLISDSNPMVVANAVAALSEIAESHPSSNLLDLNPQSINKLLTALNECTEWGQIFILDCLANYMPKDDREAQSICERVTPRLSHANSAVVLSAVKVLMKFMEMLSKDLDYYATLLKKLAPPLVTLLSAEPELQYVALRNINLIVQKRPEILKHEMKVFFVKYNDPIYVKLEKLDIMIRLASQANIAQVLAELKEYATEVDVDFVRKAVRAIGRCAIKVEQSAERCVSTLLDLIQTKVNYVVQEAIVVIKDIFRKYPNKYESVIATLCENLDSLDEPEARAAMIWIVGEYAERIDNADELLESFLEGFHDESTQVQLQLLTAIVKLFLKKPTETQELVQQVLSLATQDSDNPDLRDRGYIYWRLLSTDPVAAKEVVLAEKPLISEETDLIEPTLLDELICYIGTLASVYHKPPNAFVEGGRGVVHKSLPPRTASSESTESPETAPAGAPAGDQPDVIPAQGDLLGDLLNLDLGPPVSGPPLAASSVQMGAVDLLGGGLDSLIGDSNFGAPSASVAAAPAPARLGAPISSGLSDLFDLTSGVGTLSGSYVAPKAVWLPAMKAKGLEISGTFTRQAGSISMDLQLTNKALQVMTDFAIQFNRNSFGLAPAAPLQVHVPLSPNQTVEISLPLNTVGSVLKMEPLNNLQVAVKNNIDVFYFSTLYPLHVLFVEDGKMDRQMFLATWKDIANENEAQFQIRDCPLNTEAASNKLQSSNIFTVAKRNVEGQDMLYQSLKLTNGIWVLAELRIQPGNPSFTLSLKCRAPEVSQHVYQAYETILKN
B6: Hnrnpl (protein, UniProt P14866 1-589, looked up)
Heterogeneous nuclear …: MSRRLLPRAEKRRRRLEQRQQPDEQRRRSGAMVKMAAAGGGGGGGRYYGGGSEGGRAPKRLKTDNAGDQHGGGGGGGGGAGAAGGGGGGENYDDPHKTPASPVVHIRGLIDGVVEADLVEALQEFGPISYVVVMPKKRQALVEFEDVLGACNAVNYAADNQIYIAGHPAFVNYSTSQKISRPGDSDDSRSVNSVLLFTILNPIYSITTDVLYTICNPCGPVQRIVIFRKNGVQAMVEFDSVQSAQRAKASLNGADIYSGCCTLKIEYAKPTRLNVFKNDQDTWDYTNPNLSGQGDPGSNPNKRQRQPPLLGDHPAEYGGPHGGYHSHYHDEGYGPPPPHYEGRRMGPPVGGHRRGPSRYGPQYGHPPPPPPPPEYGPHADSPVLMVYGLDQSKMNCDRVFNVFCLYGNVEKVKFMKSKPGAAMVEMADGYAVDRAITHLNNNFMFGQKLNVCVSKQPAIMPGQSYGLEDGSCSYKDFSESRNNRFSTPEQAAKNRIQHPSNVLHFFNAPLEVTEENFFEICDELGVKRPSSVKVFSGKSERSSSGLLEWESKSDALETLGFLNHYQMKNPNGPYPYTLKLCFSTAQHAS

tested on: WT MEF EVs; experiment: Quantitative LC-MS/MS proteomics of EVs from ISRIB-treated WT MEF cultures; type: cell-based, mouse; design: key to ISRIB and DYT Parallel Direction / ISRIB and DYT Parallel Direction, Ctdsp1 / ISRIB and DYT Parallel Direction, Pcdh19 / ISRIB and DYT Parallel Direction, Tspan7 / ISRIB and DYT Parallel Direction, Myo1e / ISRIB and DYT Parallel Direction, Plpp3 / ISRIB and DYT Parallel Direction, Sh3bp4 / ISRIB and DYT Parallel Direction, Dnajc7 / ISRIB and DYT Parallel Direction, Drg1 / ISRIB and DYT Parallel Direction, Maea: YES = protein abundance effect similar to DYT/WT; conditions: EV protein abundance, ISRIB-treated WT vs WT

Molecule | WT + ISRIB/WT Cohen's d
B1 | −1.06
B2 | −1.84
B3 | −1.56
B4 | −3.04
B5 | −1.08
B6 | −0.32

same assay, conditions: EV protein abundance, WT + ISRIB vs WT, direction compared with DYT/WT

Molecule | ISRIB and DYT Parallel Direction
B1 | YES
B2 | YES
B3 | YES
B4 | YES
B5 | YES
B6 | YES

tested on: DYT-TOR1A MEF EVs; experiment: Quantitative LC-MS/MS proteomics of EVs from drug-treated DYT-TOR1A MEF cultures (ritonavir, salubrinal); type: cell-based, mouse; design: key to RTV Corrective Direction / RTV Corrective Direction, Grwd1 / RTV Corrective Direction, Srrm2 / RTV Corrective Direction, Rbm17 / RTV Corrective Direction, Dcaf8 / RTV Corrective Direction, Edil3 / RTV Corrective Direction, Timp3 / RTV Corrective Direction, Heatr3 / RTV Corrective Direction, Brd4 / RTV Corrective Direction, P3h4 / RTV Corrective Direction, Pacsin3 / RTV Corrective Direction, Naa50 / RTV Corrective Direction, Lpar6 / RTV Corrective Direction, Ndrg1 / RTV Corrective Direction, Kntc1 / RTV Corrective Direction, Cdk11b / RTV Corrective Direction, Sumo1 / RTV Corrective Direction, Lsm4 / RTV Corrective Direction, Hmga2 / RTV Corrective Direction, Cstf1 / RTV Corrective Direction, Tes / RTV Corrective Direction, Sbno1 / RTV Corrective Direction, Unc119b / RTV Corrective Direction, Cfdp1 / RTV Corrective Direction, Sec61b: YES = protein abundance effect opposite to DYT/WT; conditions: EV protein abundance, DYT + RTV (ritonavir) vs DYT, direction compared with DYT/WT

Molecule | RTV Corrective Direction
B1 | YES
B2 | YES
B3 | YES
B4 | YES
B5 | YES
B6 | YES

same assay, conditions: EV protein abundance, ritonavir (RTV)-treated DYT vs DYT

Molecule | DYT + RTV/DYT Cohen's d
B1 | 3.36
B2 | 4.24
B3 | 5.13
B4 | 2.79
B5 | 4.53
B6 | 6.17
